The text below walks through data of paper doi:10.1101/394452 (bioRxiv, 2018).

This data set deals with the molecule itself. Kind of data set: small angle X-ray scattering.

Numbering of substitutions follows the chain as printed. In names and notes the source's numbering stands.

B1: phospho-mimetic tbWag31-T73E (DivIVA/Wag31 from M. tuberculosis, Rv2145c) (natural protein)
chain: MPLTPADVHNVAFSKPPIGKRGYNEDEVDAFLDLVENELTRLIEENSDLRQRINELDQELAAGGGAGVTPQAEQAIPAYEPEPGKPAPAAVSAGMNEEQALKAARVLSLAQDTADRLTNTAKAESDKMLADARANAEQILGEARHTADATVAEARQRADAMLADAQSRSEAQLRQAQEKADALQADAERKHSEIMGTINQQRAVLEGRLEQLRTFEREYRTRLKTYLESQLEELGQRGSAAPVDSNADAGGFDQFNRGKN
Turning to B1, the binding result is “binds”.

B2: phospho-ablative tbWag31-T73A (DivIVA/Wag31 from M. tuberculosis, Rv2145c) (natural protein)
chain: B1 chain with E73A
Take B2: the binding result is recorded as “binds”.
